Measured values as given in patent US10309966B2, “Personalized therapy of inflammation-associated cancer using methods of assessing the susceptibility of a subject to the treatment with EGFR inhibitors/antagonists” (Medizinische Universität Wien, priority 2014, dated 2019).

B1: IL-6: recombinant mouse IL-6 administered by oral gavage (protein, UniProt P08505 25-211, looked up)
Interleukin-6: FPTSQVRRGDFTEDTTPNRPVYTTSQVGGLITHVLWEIVEMRKELCNGNSDCMNNDDALAENNLKLPEIQRNDGCYQTGYNQEICLLKISSGLLEYHSYLEYMKNNLKDNKKDKARVLQRDTETLIHIFNQEVKDLHKIVLPTPISNALLTDKLESQKEWLRTKTIQFILKSLEEFLKVTLRSTRQT
B2: gp130: glycoprotein-130, exogenously administered to inhibit IL-6 trans-signaling (protein, UniProt P40189 23-918, looked up)
Interleukin-6 receptor …: ELLDPCGYISPESPVVQLHSNFTAVCVLKEKCMDYFHVNANYIVWKTNHFTIPKEQYTIINRTASSVTFTDIASLNIQLTCNILTFGQLEQNVYGITIISGLPPEKPKNLSCIVNEGKKMRCEWDGGRETHLETNFTLKSEWATHKFADCKAKRDTPTSCTVDYSTVYFVNIEVWVEAENALGKVTSDHINFDPVYKVKPNPPHNLSVINSEELSSILKLTWTNPSIKSVIILKYNIQYRTKDASTWSQIPPEDTASTRSSFTVQDLKPFTEYVFRIRCMKEDGKGYWSDWSEEASGITYEDRPSKAPSFWYKIDPSHTQGYRTVQLVWKTLPPFEANGKILDYEVTLTRWKSHLQNYTVNATKLTVNLTNDRYLATLTVRNLVGKSDAAVLTIPACDFQATHPVMDLKAFPKDNMLWVEWTTPRESVKKYILEWCVLSDKAPCITDWQQEDGTVHRTYLRGNLAESKCYLITVTPVYADGPGSPESIKAYLKQAPPSKGPTVRTKKVGKNEAVLEWDQLPVDVQNGFIRNYTIFYRTIIGNETAVNVDSSHTEYTLSSLTSDTLYMVRMAAYTDEGGKDGPEFTFTTPKFAQGEIEAIVVPVCLAFLLTTLLGVLFCFNKRDLIKKHIWPNVPDPSKSHIAQWSPHTPPRHNFNSKDQMYSDGNFTDVSVVEIEANDKKPFPEDLKSLDLFKKEKINTEGHSSGIGGSSCMSSSRPSISSSDENESSQNTSSTVQYSTVVHSGYRHQVPSVQVFSRSESTQPLLDSEERPEDLQLVDHVDGGDGILPRQQYFKQNCSQHESSPDISHFERSKQVSSVNEEDFVRLKQQISDHISQSCGSGQMKMFQEVSAADAFGPGTEGQVERFETVGMEAATDEGMPKSYLPQTVRQGGYMPQ

Assays:
DSS-induced colitis = experiment: Oral recombinant IL-6 during DSS-induced colitis in EGFR mutant mice; format: in vivo, mouse; conditions: for DSS-induced weight loss: IL-6 orally during DSS, FIG. 17B; for epithelial proliferation during colitis (BrdU): FIGS. 18A, 26A
Experimental: Colitis was induced by administering 2.5% dextran sulfate sodium salt (DSS) (MP Biomedicals, 0216011080) in autoclaved drinking water for 5 d followed by 5 d of normal water (Chalaris, A. et al., 2010). Colon tumors in mice were induced as previously described (Wirtz, S. et al., 2007; Tanaka, T. et al., 2003). Briefly, mice were injected i.p. with 7.5 mg/kg azoxymethane (AOM) (Sigma-Aldrich, A5486) followed by repeated administration of DSS. 300 U recombinant mouse IL-6 (ImmunoTools GmbH, Germany) was administered by oral gavage.
Mice were injected with 10 mg/kg BrdU 2.5 hrs prior to sacrifice. The colons were extracted, flushed with ice cold PBS to remove feces, fixed overnight at 4° C. in neutral buffered 4% formaldehyde as “Swiss Rolls”, which were further dehydrated, embedded in paraffin and sectioned. Sections were stained with Haematoxylin and Eosin (Sigma), Alcian blue, Giemsa and PAS. Colitis severity and tumor stage were scored and graded by pathologists in a blinded manner according to previously described criteria (Dube, P. E. et al., 2012; Musteanu, M. et al., 2010). For immunohistochemistry, sections were dewaxed, rehydrated and boiled in Citrate buffer pH 6.1 (S1699, Dakocytomation, Glostrup, Denmark) for antigen recovery. Endogenous peroxidase was quenched by incubation with 3% H2O2 in TBS, followed by blocking with 10% goat serum in 2% BSA in TBS—0.1% Tween. Sections were then incubated overnight with antibodies against β-catenin (Cell Signaling, Danvers, Mass.; 9582), cleaved caspase 3 (Cell Signaling; 9661), lysozyme (Dako; A0099), EGFR (sc-03, Santa Cruz Biotechnology, Santa Cruz, Calif.), pTyr705-STAT3 (9145, Cell Signaling), survivin (Cell Signaling; 2808) and synaptophysin (GTX100865, GeneTex Irvine, Calif.), respectively. All sections were further treated with SignalStain® Boost (Cell Signaling; 8114) to detect bound antibody and with liquid3-Amino-9-Ethylcarbazole Chromogen/Substrate (BP 1108, ID LABS™ ON, Canada) for peroxidase staining and counterstained with Haematoxylin (HHS32, Sigma-Aldrich). For BrdU staining, sections were treated with 2 N HCl after antigen recovery, blocked as described above and incubated with anti-BrdU antibody (347580, BD Biosciences) and further with secondary antibody (Invitrogen A-11018) and counterstained with DAPI.
Intestinal barrier permeability was assessed as previously described (Chalaris, A. et al., 2010). Briefly, mice were orally gavaged with 60 mg/kg FITC-Dextran (Sigma FD4), food and water were withdrawn 4 h prior to gavage. FITC levels were determined in the serum 4 h post gavage by absorption at 488 nm using standard dilutions of FITC-Dextran as reference.

IL-6 trans-signaling = conditions: exogenous administration, mouse model of CAC; cited from earlier work

| Molecule | DSS-induced weight loss (DSS-induced colitis; Egfr^wa2/wa2 mice) | epithelial proliferation during colitis (BrdU) (DSS-induced colitis; Egfr^wa2/wa2 mice) | apoptosis (cleaved Caspase 3) (DSS-induced colitis; Egfr^ΔIEC mice) | apoptosis (cleaved Caspase 3) (DSS-induced colitis; Egfr^ΔMYL and Egfr^wa2/wa2 mice, FIGS. 18B, 26B) | pY-STAT3 nuclear localization in crypts (DSS-induced colitis; Egfr^ΔMYL mice during DSS treatment, FIGS. 18C, 18D) | DSS-induced weight loss (DSS-induced colitis; Egfr^ΔMYL mice) | number of ulcers (DSS-induced colitis; Egfr^ΔMYL mice, FIG. 17D) | loss of epithelial barrier function (FITC-dextran in serum) (DSS-induced colitis; Egfr^ΔMYL mice, FIG. 17E) | epithelial proliferation during colitis (BrdU) (DSS-induced colitis; Egfr^ΔMYL mice) | colitis and tumor development (IL-6 trans-signaling) |
| --- | --- | --- | --- | --- | --- | --- | --- | --- | --- | --- |
| B1 | partially rescued | partially | decreased | not affected | fully restored | able to protect | decreased | protected | fully | – |
| B2 | – | – | – | – | – | – | – | – | – | substantial decrease |
